Experimental data reported in article PMC10726971 (Nature chemical biology, 2023).

Molecular target: the molecule itself
Assay: SEC-MALS

B1: human FUT9 soluble catalytic domain (residues 39-359) (enzyme, UniProt Q9Y231 39-359, looked up)
chain: SPMESASSVLKMKNFFSTKTDYFNETTILVWVWPFGQTFDLTSCQAMFNIQGCHLTTDRSLYNKSHAVLIHHRDISWDLTNLPQQARPPFQKWIWMNLESPTHTPQKSGIEHLFNLTLTYRRDSDIQVPYGFLTVSTNPFVFEVPSKEKLVCWVVSNWNPEHARVKYYNELSKSIEIHTYGQAFGEYVNDKNLIPTISTCKFYLSFENSIHKDYITEKLYNAFLAGSVPVVLGPSRENYENYIPADSFIHVEDYNSPSELAKYLKEVDKNNKLYLSYFNWRKDFTVNLPRFWESHACLACDHVKRHQEYKSVGNLEKWFWN
modifications: N-glycans cleaved with EndoF1; a tetrasaccharide (Manα1,3-Manβ1,4-GlcNAcβ1,4-GlcNAcβ-) is left on Asn153
For B1, the “stoichiometry N” value was 2.
